Assay results reported in EP3048116A1 (International-Drug-Development-Biotech, dated 2016).
Positions count from the first letter of the chain named. Names and notes keep the numbering of the source.

B1: Hz033-Mut7 (antibody, human IgG1, kappa)
heavy: EVQLQQSGAEVVKPGASVKLSCKASGFNIKDTFIHWVKQAPGQGLEWIGRIDPANGNTKYDPKFQGKATITTDTSSNTAYMELSSLRSEDTAVYYCVRGLYTYYFDYWGQGTLVTVSSASTKGPSVFPLAPSSKSTSGGTAALGCLVKDYFPEPVTVSWNSGALTSGVHTFPAVLQSSGLYSLSSVVTVPSSSLGTQTYICNVNHKPSNTKVDKKVEPKSCDKTHTCPPCPAPELLGGPSVFLFPPKPKDTLMISRTPEVTCVVVDVSHEDPEVKFNWYVDGVEVHNAKTKPREEQYNSTYRVVSVLTVLHQDWLNGKEYKCKVSNAALPAPIAKTISKAKGQPREPQVYTLPPSRDELTKNQVSLTCLVKGFYPSDIAVEWESNGQPENNYKTTPLVLDSDGSFFLYSKLTVDKSRWQQGNVFSCSVMHEALHNHYTQKSLSLSPGK
light: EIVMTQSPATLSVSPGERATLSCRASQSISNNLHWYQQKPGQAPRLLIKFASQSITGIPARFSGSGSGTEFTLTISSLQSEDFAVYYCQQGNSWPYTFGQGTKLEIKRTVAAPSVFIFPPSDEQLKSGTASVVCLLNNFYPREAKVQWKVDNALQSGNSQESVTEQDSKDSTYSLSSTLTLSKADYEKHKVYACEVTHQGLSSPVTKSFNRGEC
notes: also called Hz033 Mut7 (K326A E333A P396L)
B2: Hz033-Mut8 (antibody, human IgG1, kappa)
heavy: B1 heavy with Y301L
light: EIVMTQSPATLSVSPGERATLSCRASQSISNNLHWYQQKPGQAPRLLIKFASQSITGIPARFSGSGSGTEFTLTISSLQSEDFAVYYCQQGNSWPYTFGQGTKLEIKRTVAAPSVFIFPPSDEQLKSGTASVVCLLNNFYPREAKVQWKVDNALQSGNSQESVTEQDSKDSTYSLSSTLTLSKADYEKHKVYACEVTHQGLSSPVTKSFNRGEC
notes: also called Hz033 Mut8 (Y300L K326A E333A P396L)
B3: Hz033-Mut11 (antibody, human IgG1, kappa)
heavy: B1 heavy with F244L, R293P, Y301L, V306L
light: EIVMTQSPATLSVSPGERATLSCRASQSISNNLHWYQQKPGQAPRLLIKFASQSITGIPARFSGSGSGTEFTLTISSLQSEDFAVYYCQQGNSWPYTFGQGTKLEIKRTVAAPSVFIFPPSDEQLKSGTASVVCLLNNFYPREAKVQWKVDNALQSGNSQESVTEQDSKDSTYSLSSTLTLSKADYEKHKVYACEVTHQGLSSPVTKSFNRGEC
notes: also called Hz033 Mut11 (F243L R292P Y300L V305L K326A E333A P396L)

Biological target: T1, Purified human sDR5 (human, UniProt O14763 56-182, limits assumed)
T1 construct: Analyte in the Biacore assay; only called 'purified human sDR5'
Assay: SPR (Biacore), MAb captured on immobilised GAH, sDR5 injected at 40 nM to 2.5 nM

Binder | Kd
B1 | 0.426 nM
B2 | 0.4 nM
B3 | 0.464 nM
